T1: FcγRIIa H (FcγRIIa type H, His at position 131), extracellular domain with C-terminal His tag (human, UniProt P12318 34-217)
T1 construct: extracellular domain; Expressed in FreeStyle293 cells; analyte in the Biacore assay; also called FcgRIIa H; 2aH; not shown: His tag at the C terminus
T1 sequence (looked up): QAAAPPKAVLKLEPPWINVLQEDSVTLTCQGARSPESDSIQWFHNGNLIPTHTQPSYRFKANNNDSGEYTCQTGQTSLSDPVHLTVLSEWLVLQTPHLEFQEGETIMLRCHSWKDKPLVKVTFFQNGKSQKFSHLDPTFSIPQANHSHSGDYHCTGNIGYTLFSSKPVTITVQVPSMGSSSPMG

T2: FcγRIIb, extracellular domain with C-terminal His tag (human, UniProt P31994 43-217)
T2 construct: extracellular domain; Expressed in FreeStyle293 cells; analyte in the Biacore assay; also called FcgRIIb; 2b; not shown: His tag at the C terminus
T2 sequence (looked up): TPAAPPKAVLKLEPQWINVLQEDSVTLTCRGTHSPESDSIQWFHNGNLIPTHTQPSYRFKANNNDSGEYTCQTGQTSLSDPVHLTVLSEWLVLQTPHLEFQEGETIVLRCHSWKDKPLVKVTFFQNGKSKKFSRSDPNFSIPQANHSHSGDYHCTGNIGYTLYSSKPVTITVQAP

B1: GpH7-A5/GpH7-B3 variant P329_11K/GpL16-k0 (antibody, human IgG1, kappa)
heavy 1: not shown
heavy 2: not shown
light: DIVMTQSPLSLPVTPGEPASISCQASESLVHSNRNTYLHWYLQKPGQSPQLLIYKVSNRFSGVPDRFSGSGSGTDFTLKISRVEAEDVGVYYCSQNTHVPPTFGQGTKVEIERTVAAPSVFIFPPSDEQLKSGTASVVCLLNNFYPREAKVQWKVDNALQSGNSQESVTEQDSKDSTYSLSSTLTLSKADYEKHKVYACEVTHQGLSSPVTKSFNRGEC
notes: He Ab; IgG1; mutation in one H chain only; also called He Ab
B2: GpH7-A5/GpH7-B3 variant A330_14T/GpL16-k0 (antibody, human IgG1, kappa)
heavy 1: not shown
heavy 2: not shown
light: B1 light
notes: as for B1
B3: GpH7-A5/GpH7-B3 variant A330_07I/GpL16-k0 (antibody, human IgG1, kappa)
heavy 1: not shown
heavy 2: not shown
light: B1 light
notes: as for B1
B4: GpH7-A5/GpH7-B3 variant P329_14T/GpL16-k0 (antibody, human IgG1, kappa)
heavy 1: not shown
heavy 2: not shown
light: B1 light
notes: as for B1
B5: GpH7-A5/GpH7-B3 variant A330_08L/GpL16-k0 (antibody, human IgG1, kappa)
heavy 1: not shown
heavy 2: not shown
light: B1 light
notes: as for B1
B6: GpH7-A5/GpH7-B3 variant N325_11K/GpL16-k0 (antibody, human IgG1, kappa)
heavy 1: not shown
heavy 2: not shown
light: B1 light
notes: as for B1
B7: GpH7-A5/GpH7-B3 variant A330_03V/GpL16-k0 (antibody, human IgG1, kappa)
heavy 1: not shown
heavy 2: not shown
light: B1 light
notes: as for B1
B8: GpH7-A5/GpH7-B3 variant P329_06M/GpL16-k0 (antibody, human IgG1, kappa)
heavy 1: not shown
heavy 2: not shown
light: B1 light
notes: as for B1
B9: GpH7-A5/GpH7-B3 variant A327_06M/GpL16-k0 (antibody, human IgG1, kappa)
heavy 1: not shown
heavy 2: not shown
light: B1 light
notes: as for B1
B10: GpH7-A5/GpH7-B3 variant E333_13S/GpL16-k0 (antibody, human IgG1, kappa)
heavy 1: not shown
heavy 2: not shown
light: B1 light
notes: as for B1
B11: GpH7-A5/GpH7-B3 variant P329_15Y/GpL16-k0 (antibody, human IgG1, kappa)
heavy 1: not shown
heavy 2: not shown
light: B1 light
notes: as for B1
B12: GpH7-A5/GpH7-B3 variant A330_13S/GpL16-k0 (antibody, human IgG1, kappa)
heavy 1: not shown
heavy 2: not shown
light: B1 light
notes: as for B1
B13: GpH7-A5/GpH7-B3 variant I332_18N/GpL16-k0 (antibody, human IgG1, kappa)
heavy 1: not shown
heavy 2: not shown
light: B1 light
notes: as for B1
B14: GpH7-A5/GpH7-B3 variant E333_11K/GpL16-k0 (antibody, human IgG1, kappa)
heavy 1: not shown
heavy 2: not shown
light: B1 light
notes: as for B1
B15: GpH7-A5/GpH7-B3 variant N325_12R/GpL16-k0 (antibody, human IgG1, kappa)
heavy 1: not shown
heavy 2: not shown
light: B1 light
notes: as for B1
B16: GpH7-A5/GpH7-B3 variant P329_12R/GpL16-k0 (antibody, human IgG1, kappa)
heavy 1: not shown
heavy 2: not shown
light: B1 light
notes: as for B1
B17: GpH7-A5/GpH7-B3 variant P329_04F/GpL16-k0 (antibody, human IgG1, kappa)
heavy 1: not shown
heavy 2: not shown
light: B1 light
notes: as for B1
B18: GpH7-A5/GpH7-B3 variant I332_12R/GpL16-k0 (antibody, human IgG1, kappa)
heavy 1: not shown
heavy 2: not shown
light: B1 light
notes: as for B1
B19: GpH7-A5/GpH7-B3 variant P329_03V/GpL16-k0 (antibody, human IgG1, kappa)
heavy 1: not shown
heavy 2: not shown
light: B1 light
notes: as for B1
B20: GpH7-A5/GpH7-B3 variant I336_19Q/GpL16-k0 (antibody, human IgG1, kappa)
heavy 1: not shown
heavy 2: not shown
light: B1 light
notes: as for B1

Each binder was assayed against T1, FcγRIIa H (FcγRIIa type H, His at …) (assay: SPR Biacore, captured antibody, FcgR analyte; GpH7-A5/GpH7-B3/GpL16-k0 = 100).

He/Con_2aH	Binder
46.2 % of HeCon Ab	B1
94.5 % of HeCon Ab	B2
87.3 % of HeCon Ab	B3
62.4 % of HeCon Ab	B4
87.6 % of HeCon Ab	B5
16.1 % of HeCon Ab	B6
79.7 % of HeCon Ab	B7
43.7 % of HeCon Ab	B8
75.5 % of HeCon Ab	B9
101 % of HeCon Ab	B10
68.7 % of HeCon Ab	B11
65.4 % of HeCon Ab	B12
110 % of HeCon Ab	B13
98.1 % of HeCon Ab	B14
29.9 % of HeCon Ab	B15
46.4 % of HeCon Ab	B16
44.5 % of HeCon Ab	B17
87.8 % of HeCon Ab	B18
60.4 % of HeCon Ab	B19
73.7 % of HeCon Ab	B20

The binders below were run against T2, FcγRIIb, extracellular domain with … in the same assay as above.

He/Con_2b	Binder
16.9 % of HeCon Ab	B1
77.9 % of HeCon Ab	B2
67.1 % of HeCon Ab	B3
37.9 % of HeCon Ab	B4
70.5 % of HeCon Ab	B5
10.4 % of HeCon Ab	B6
52.4 % of HeCon Ab	B7
29.1 % of HeCon Ab	B8
59.5 % of HeCon Ab	B9
81.8 % of HeCon Ab	B10
45.7 % of HeCon Ab	B11
41.3 % of HeCon Ab	B12
89.9 % of HeCon Ab	B13
80.6 % of HeCon Ab	B14
19.1 % of HeCon Ab	B15
17.6 % of HeCon Ab	B16
32.2 % of HeCon Ab	B17
48.9 % of HeCon Ab	B18
38.5 % of HeCon Ab	B19
58.2 % of HeCon Ab	B20

These binders were tested against T1, FcγRIIa H (FcγRIIa type H, His at …) (assay: SPR Biacore; He/Con_2aH divided by He/Con_2b (reference: FcgRIIb)).

He_2aH/2b (IIaH/IIb)	Binder
2.74	B1
1.21	B2
1.3	B3
1.65	B4
1.24	B5
1.55	B6
1.52	B7
1.5	B8
1.27	B9
1.23	B10
1.5	B11
1.58	B12
1.22	B13
1.22	B14
1.56	B15
2.63	B16
1.38	B17
1.8	B18
1.57	B19
1.27	B20

Reference: patent US20180155451A1 (published 2018)
